The values below come from patent US8975044B2, “Polynucleotides encoding for frizzled-binding agents and uses thereof” (OncoMed Pharmaceuticals, Inc., priority 2008, dated 2015).

Assay [1] has as its system OMP-C28 colon tumor xenografts. The experiment in a line: OMP-C28 colon tumor xenograft growth. In kind it is in vivo, NOD/SCID mice. The following applies: 18R5 10 mg/kg IP twice weekly, single agent; p=0.02. Here is the method:
In another embodiment anti-FZD antibodies were analyzed for their ability to reduce the growth of OMP-C28 colon tumor xenografts. Dissociated human OMP-C28 cells (10,000 per animal) were injected subcutaneously into 6-8 week old male NOD/SCID mice. Tumor growth was monitored weekly and tumor measurements were initiated once tumors were palpable. On day 24 mice with average tumor volume of 129 mm^3 were randomized into 4 groups of 10 animals each. Animals were injected with either control antibody, or 18R5 IgG antibody (10 mg/kg), or irinotecan (7.5 mg/kg) or combination of both 18R5 and irinotecan. Administration of the antibodies and irinotecan was performed via injection into the intra-peritoneal cavity, twice weekly. Tumors were measured twice a week and tumor volume was determined using the formula ½(a×b^2); where a=length, and b=breadth. Data are expressed as mean and mean±S.E.M. Group means were compared using Student's two-tailed, unpaired t test.

A further assay deals with Wnt target genes. As to the kind of experiment: qPCR of Wnt target genes in duodenum of OMP-PN13-bearing mice. In kind it is in vivo, NOD/SCID mice. Here is the method:
Frozen OMP-PN13 tumor cells that have been passaged twice in mice were obtained from Oncomed's tumor bank. They were thawed and injected subcutaneously into the left flank of NOD/SCID mice immediately following thawing. ˜ 25,000 viable cells were injected per animal. The mice were monitored weekly for tumor growth. After their onset, the size of the tumors was measured once weekly by caliper. 200-300 mm^3 tumor-bearing mice were dispatched in treatment groups that each contained 5 animals. […] Ab treatment was initiated the day after randomization. LZ1 was used as the negative control Ab. 3 doses of 10 mg/kg of Ab were administered via intra-peritoneal injection over a 12-day period. Mice were euthanized 24 hours after the last injection. Tumor, duodenum and liver were harvested.
Total RNAs were also extracted from tumor, duodenum and liver for Wnt target gene expression analyses using qPCR.
Tissues were immediately transferred into RNAlater (QIAGEN) at the time of harvest. RNA was extracted using the QIAGEN RNeasy for Fibrous Tissue mini kit according to the manufacturer instructions. […] All 5 tumors of each treatment group were analyzed. […] ABI SDS 2.2.1 software was used to analyze the data and calculate DeltaCt values that were converted into relative quantities. […] Fold inhibition factors were then calculated relative to control antibody (LZ1).

Assay [2] deals with OMP-LU24 human lung tumors. As to the kind of experiment: OMP-LU24 lung tumor xenograft growth. The following applies: antibody 10 mg/kg IP once per week, Taxol 15 mg/kg IP once per week. Type of assay: in vivo, NOD-SCID mice. Here is the method: 50,000 OMP-LU24 human lung tumor cells were injected subcutaneously in NOD-SCID mice. Tumors were allowed to grow for 27 days until they reached an average volume of 143 mm^3. The animals were randomized into 4 groups (n=9 per group) and treated with either control antibody (“Control Ab”), anti-FZD 18R5 (“18R5”), Taxol® (“Taxol”) or the combination of 18R5 plus Taxol® (“18R5+Taxol”). Antibodies were dosed at 10 mg/kg intraperitoneal (IP), once per week and Taxol® was dosed at 15 mg/kg, IP, once per week.

The subject of another assay is PN4 tumors. As to the kind of experiment: Alcian blue staining of treated PN4 tumor sections. As to conditions: relative to controls and the gemcitabine alone group; data not shown. In kind it is in vivo, mice. The text has this: Another characteristic of endocrine, secretory or ductal cells is the production of mucin and these cells can be detected by alcian blue staining (van Es et al. 2005. Nature 435 959-63). It was observed during harvesting and processing of tumors that the 18R5 treated tumors were much more mucinous than control treated tumors. Therefore, PN4 tumors sections from mice treated with control antibody, gemcitabine alone, 18R5 alone, or 18R5 plus gemcitabine were stained with alcian blue.

Another assay deals with PE13 breast tumors. The experiment in a line: PE13 breast tumor limiting dilution assay (LDA). Type of assay: in vivo, mice. As to conditions: antibody 20 mg/kg once per week; 50, 150 or 500 cells re-injected, 59 days; L-calc. How it is done:
PE13 breast tumor limiting dilution assay (LDA) study with 18R5 mAb: Animals bearing PE13 breast tumors were treated with either control antibody (gray circles), 18R5 (open triangles), taxol (black circles), or the combination of taxol and 18R5 (open squares). Taxol was dosed at 15 mg/kg twice per week and the antibodies were dosed 20 mg/kg once per week. Tumors were harvested and the human tumor cells were purified by lin depletion. 50, 150, or 500 tumor cells were injected into a new cohort of mice (n=10 per cell dose). Tumor growth frequency was monitored after 59 days and used to calculate the CSC frequency (L-calc).

In a further assay the target is T1, FZD8 (Homo sapiens, UniProt Q9H461, D83Q/P82S).
T1 construct: N-terminus of the Fri domain of FZD8 in turn fused to the transmembrane domain and intracellular domain of CD4 protein; expressed in transfected cells; host or cells: HEK293
T1 sequence (Q9H461 28-158 P82S/D83Q): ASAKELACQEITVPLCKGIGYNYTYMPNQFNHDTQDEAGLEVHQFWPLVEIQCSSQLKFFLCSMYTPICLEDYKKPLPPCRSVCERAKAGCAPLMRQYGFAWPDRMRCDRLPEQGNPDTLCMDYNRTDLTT
As to the kind of experiment: Epitope mapping by FACS on FZD8 Fri domain variants on HEK293 cells. Type of assay: binding. As to conditions: amino acid residues 82-83 mutated from PD to SQ. Here is the method: To identify the FZD epitope recognized by the 18R8 IgG antibody, epitope mapping was performed. Flow cytometry analysis of cell surface expressed FZD was utilized to measure antibody binding. Mammalian expression plasmid vectors comprising a CMV promoter upstream of polynucleotides that encode an N-terminal signal sequence FLAG epitope tag fused to the N-terminus of the Fri domain of FZD8 in turn fused to the transmembrane domain and intracellular domain of CD4 protein were generated by standard recombinant technology. This expression construct allows expression of the FZD8 Fri domain on the cell surface, as well as expression of a FLAG epitope tag to monitor expression. Site-direct mutagenesis was then used to modify selected amino acids within the extracellular domain of FZD. HEK293 cells were co-transfected with expression vectors encoding the FZD and the transfection marker GFP. Forty-eight hours post-transfection, cells were collected in suspension and incubated on ice with anti-FZD antibody or control IgG to detect background antibody binding. The cells were washed and primary antibodies detected with anti-antibody secondary antibodies conjugated to a fluorescent chromophore. Labeled cells were then analyzed by flow cytometry to measure the binding of anti-FZD antibody to cell surface FZD.
Epitope mapping for the anti-FZD antibody 44R24 was performed in a manner similar to that described above in Example 5 for the antibodies 18R8 and 18R5. The ability of 44R24 to bind to a similar epitope as 18R8 was assessed by flow cytometry using a series of amino acid variants of FZD8 previously shown to disrupt binding of 18R8 (see Example 5 and FIGS. 6 and 7).

B1: 18R5: human anti-FZD antibody; VH SEQ ID NO:10 (as 18R8), VL SEQ ID NO:14; binds FZD1, 2, 5, 7, 8 (antibody, V domains shown)
VH: EVQLVESGGGLVQPGGSLRLSCAASGFTFSHYTLSWVRQAPGKGLEWVSVISGDGSYTYYADSVKGRFTISSDNSKNTLYLQMNSLRAEDTAVYYCARNFIKYVFANWGQGTLVTVSS
VL: DIELTQPPSVSVAPGQTARISCSGDNIGSFYVHWYQQKPGQAPVLVIYDKSNRPSGIPERFSGSNSGNTATLTISGTQAEDEADYYCQSYANTLSLVFGGGTKLTVLG
modifications: 18R5/18R8 heavy chain variable region (VH); 18R5 light chain variable region (VL)
Turning to B1, the “reduction in tumor growth” value in assay [1] turned out to be 40%. In the assay with Wnt target genes (fold relative to control antibody LZ1, 3 doses of 10 mg/kg over 12 days), the “duodenum Lgr5” value is −2.6x. For the same molecule, the “Wnt target gene in the duodenum” value in the assay with Wnt target genes (relative to LZ1) is “unaffected”. Also, the xenograft tumor growth entry in assay [2] is listed as “inhibits OMP-LU24 xenograft tumor growth”. Moreover, the alcian blue staining entry with PN4 tumors was “clear increase in alcian blue staining”. Besides, in the assay with PE13 breast tumors, the “breast cancer stem cell frequency” value is “Reduction of breast cancer stem cell frequency”.

B2: 18R8: human anti-FZD antibody from phage display; VH SEQ ID NO:10, VL SEQ ID NO:12; binds FZD1, 2, 5, 7, 8 (antibody, V domains shown)
VH: EVQLVESGGGLVQPGGSLRLSCAASGFTFSHYTLSWVRQAPGKGLEWVSVISGDGSYTYYADSVKGRFTISSDNSKNTLYLQMNSLRAEDTAVYYCARNFIKYVFANWGQGTLVTVSS
VL: DIELTQPPSVSVAPGQTARISCSGDKLGKKYASWYQQKPGQAPVLVIYEKDNRPSGIPERFSGSNSGNTATLTISGTQAEDEADYYCSSFAGNSLEVFGGGTKLTVLG
modifications: 18R5/18R8 heavy chain variable region (VH); 18R8 light chain variable region (VL)
On to B2, for which the “binding to FZD8 variant” value with FZD8 is reported as “largely unaffected”.
